Changes are numbered by the printed parent chain.
B1: CLA0022 Fab fragment (from CLA0022VH-F760mnP17/CLA0022VL-k0C) (Fab, V domains shown)
VH: QSLEESGGDLVKPGASLTLTCTASGFSFSSSYWIYWVRQAPGKGLEWIACIYAGVNDITYYANWAKGRFTISKTSSTTVTLQMTSLTAADTATYFCAKGSPDDAFHSWGPGTLVTVSS
VL: DVVMTQTPASVSEPVGGTVTIKCQASQSIGNYLAWYQQKPGQPPKLLIYYASNLASGVSSRFKGSRSGTEFTLTINDLECADAATYYCQCAYYDSVYVTFGGGTEVVVKR
notes: Fab prepared from the full antibody with the Pierce Fab Preparation Kit; Rabbit-derived variable regions on human constant regions; also called clamping antibody CLA0022
B2: CLA0028 Fab fragment (from CLA0028VH-F760mnP17/CLA0028VL-k0C) (Fab, V domains shown)
VH: B1 VH with V55S, N56T, D57S, I58S, N63S, S100G
VL: B1 VL with N76S, D94E, V96S
notes: also called clamping antibody CLA0028
B3: SC001 (antibody, human IgG1, lambda, V domains shown)
VH: QVQLVQSGGGVVQPGRSLRLSCAASGFTFSSYAMHWVRQAPGKGLEWVAVISYDGSNKYYADSVKGRFTISRDNSKNTLYLQMNSLRAEDTAVYYCARVYQGGATPYYYYGMDVWGQGTMVTVSS
VL: SYELTQPPSASGTPGQRVTVSCSGSTSNIGNHAVNWYQQLPGTAPKLLIYTNDQRPSGVPNRFSGSKSGISASLAISGLQSEDEADYYCSAWDDSLIGYVFGAGTKVTVLG
notes: also called adenosine-clamping antibody SC001
B4: SC002 (antibody, human IgG1, lambda, V domains shown)
VH: EVQLVQSGAEVKKPGASVKVSCKASGYTFTSYGISWVRQAPGQGLEWMGWISAYNGNTNYAQKLQGRVTMTTDTSTSTAYMELRSLRSDDTAVYYCARVSSGSQPDPPYYYYYGMDVWGQGTMVTVSS
VL: QSVLTQPASVSGSPGQSITISCTGTSSNVESYNLVSWYQQHPGKAPKFIIYEGTRRPSGISNRFSGANSGNAASLTISGLQAEDEADYYCLSYVPSRRRHVFGTGTKVTVLS
notes: also called adenosine-clamping antibody SC002
B5: SC003 (antibody, human IgG1, lambda, V domains shown)
VH: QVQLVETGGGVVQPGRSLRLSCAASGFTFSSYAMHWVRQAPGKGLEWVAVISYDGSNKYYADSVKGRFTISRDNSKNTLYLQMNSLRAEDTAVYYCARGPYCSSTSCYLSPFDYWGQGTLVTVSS
VL: QSVLTQPPSVSAAPGQKVTISCSGNTSNIGNNYVSWYQQLPGTAPKLLIYRNSDRPSGVPDRFSGSKSGTSASLAITGLQAEDEADYYCQSYDTSLTAVIFGGGTKLTVLG
notes: also called adenosine-clamping antibody SC003
B6: SC014 (antibody, human IgG1, lambda, V domains shown)
VH: EVQLVQSGGGLVQPGRSLRLSCAASGFTFDDYAMHWVRQAPGKGLEWVSGISWNSGSIGYADSVKGRFAISRDNAKNSLYLQMNSLRAEDTALYYCAKAWNDDAFDIWGQGTMVTVSS
VL: QSVVTQPPSVSGAPGQRVTVSCTGSNSNIGAGYDVHWYQQLPGTAPKLLIYGSNNRPSGVPDRFSASRSGTSASLAITGLQAEDEAEYYCQTYDTGLSGPGVVFGGGTKVTVLS
notes: also called adenosine-clamping antibody SC014
B7: SC016 (antibody, human IgG1, lambda, V domains shown)
VH: EVQLVQSGGGLVQPGRSLRLSCAASGFTFDNHAMHWVRQAPGKGLEWVSRINWNSGGIDYADSVKGRFTISRDNAKNSLYLQMNSLRAEDTALYYCVKDRGSGWYDAFDLWGQGTMVTVSS
VL: SYELTQPPSVSVAPGQTTRIACGGDSVGSESVHWYQQRPGQAPVLVISYDSDRPSGIPERFSGSKSGNTATLTISRVEAGDEADYYCQVWNSASDHWVFGGGTKLTVLG
notes: also called adenosine-clamping antibody SC016
B8: SC019 (antibody, human IgG1, lambda, V domains shown)
VH: EVQLVESGGGLVKPGGSLRLSCAASGFTFSDYYMSWIRQAPGKGLEWVSYISSSGSTIYYADSVKGRFTISRDNAKNSLYLQMNSLRAEDTAVYYCARASPNVNEGAFDIWGQGTMVTVSS
VL: QSVLTQPPSMSAAPGQKVTISCSGSGSNIGSSYVSWYQQLPGKAPRLLIYDNNKQVSWVPDRFSGSKSGTSASLVISGLQTGDEADYYCGTWDRSLSAGVFGGGTKVTVLG
notes: also called adenosine-clamping antibody SC019
B9: SC032 (antibody, human IgG1, kappa, V domains shown)
VH: QVQLQQSGAEVKKPGSSVKVSCKASGGTFSSYAISWVRQAPGQGLEWMGRIIPILGIANYAQKFQGRVTITADKSTSTAYMELSSLRSEDTAVYYCAREGLTPYYYGSELGNGMDVWGQGTTVTVSS
VL: DIQLTQSPSSLSTFVGDRVTITCRTSQNINSYLNWYQQKPGKAPKLLISTTSNLQSGVPSRFSGSGSGTDFTLTINNLQPEDFAIYYCQQTKSFPLTFGGGTKLEIKR
notes: also called adenosine-clamping antibody SC032
B10: SC034 (antibody, human IgG1, lambda, V domains shown)
VH: QVQLQQSGAEVKKPGASVKVSCKASGYTFTSYGISWVRQAPGQGLEWMGWISAYNGNTNYAQKLQGRVTMTTDTSTSTAYMELRSLRSDDTAVYYCARDYHSTRPDWPPFPYYYYYGMDVWGQGTTVTVSS
VL: QSVLTQPHSVSESPGKTVTISCTRSSGRIAANNVQWYQQRPGSAPTTIIYEDNRRPSGVPDRFSGSIDGSSNSASLTISGLKPEDEADYYCQSYVSTTVVFGGGTKLTVLG
notes: also called adenosine-clamping antibody SC034
B11: SC044 (antibody, human IgG1, lambda, V domains shown)
VH: not shown
VL: QSVLTQPPSVSGAPGQRVTISCTGSSSNIGAGYDVHWYQQLPGTAPKLLIYGNSNRPSGVPDRFSGSKSGTSASLAITGLQAEDEADYYCQSYDDSRSAVVFGGGTKLTVLG
notes: also called adenosine-clamping antibody SC044
B12: SC045 (antibody, human IgG1, lambda, V domains shown)
VH: QVQLVESGGGLVQPGGSLRLSCAASGFTFSDHYMDWVRQAPGKGLEWVGRTRNKANSYTTEYAASVKGRFTISRDDSKNSLYLQMNSLKTEDTAVYYCARGPTLAYIGYMDYWGQGTLVTVSS
VL: B11 VL with D95G, R97L, A99V
notes: also called adenosine-clamping antibody SC045
B13: SC048 (antibody, human IgG1, lambda, V domains shown)
VH: QVQLQESGGGVVQPGRSLRLSCAASGFTFSSYAMHWVRQAPGKGLEWVAVISYDGSNKYYADSVKGRFTISRDNSKNTLYLQMNSLRAEDTAVYYCAKGYSYGPGYFFDYWGQGTLVTVSS
VL: SSELTQPPSVSVSPGQTANISCSADKLGGKYVSWYQQKPGQSPVLVMYQDKKRPSGIPERLSGSGSGNTATLTISGTQAMDEATYYCQTWDGRSLFFGGGTRLTVLS
notes: also called adenosine-clamping antibody SC048
B14: CLA0311 Fab fragment (from CLA0311VH-F760mnP17/CLA0311VL-k0C) (Fab, V domains shown)
VH: QSLEESGGGLVQPEGSLTLTCTASGFSLSSSYWICWVRQAPGKGLEWIGCIYTGSGGATHYASWAKGRFTISKTSSTTVTLQMTSLTAADTATYFCASAESGYYAGFFFAPWGPGTLVTVSS
VL: AFELTQTPSSVEAAVGGTVTIKCQASESIYSGLAWYKQKPGQPPKLLIYSASTLASGVSSRFKGSGSGTQFTLTISDLECADAATYYCQSYYGGSVTGYNTFGGGTEVVVKR
notes: Fab prepared from the full antibody with the Pierce Fab Preparation Kit; also called clamping antibody CLA0311

molecular target: T1, CD3ε epitope-fused CE115HA146 (CE115HAGP13-rabIgG/GLS3000-rabk); experiment: SPR (Biacore T200), ligand captured on protein A, Fab 0-400 nM as analyte, 37 C
T1 construct: stands for the antigen/antibody complex; Rabbit constant regions; also called CE115HAPG13
T1 sequence (heavy, as listed by the source, chain 1 of 2): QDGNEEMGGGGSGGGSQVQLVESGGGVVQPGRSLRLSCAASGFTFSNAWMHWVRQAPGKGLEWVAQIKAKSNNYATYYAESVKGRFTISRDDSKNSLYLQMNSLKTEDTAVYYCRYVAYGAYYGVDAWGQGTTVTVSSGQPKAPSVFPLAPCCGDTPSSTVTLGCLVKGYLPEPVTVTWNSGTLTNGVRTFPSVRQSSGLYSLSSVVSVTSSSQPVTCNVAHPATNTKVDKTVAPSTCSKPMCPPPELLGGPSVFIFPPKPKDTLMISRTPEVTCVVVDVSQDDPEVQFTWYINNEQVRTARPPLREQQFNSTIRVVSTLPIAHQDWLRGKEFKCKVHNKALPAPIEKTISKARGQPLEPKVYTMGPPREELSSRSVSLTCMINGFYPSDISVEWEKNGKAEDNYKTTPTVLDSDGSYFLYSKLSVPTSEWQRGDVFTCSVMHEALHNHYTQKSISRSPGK
T1 sequence (light, as listed by the source, chain 2 of 2): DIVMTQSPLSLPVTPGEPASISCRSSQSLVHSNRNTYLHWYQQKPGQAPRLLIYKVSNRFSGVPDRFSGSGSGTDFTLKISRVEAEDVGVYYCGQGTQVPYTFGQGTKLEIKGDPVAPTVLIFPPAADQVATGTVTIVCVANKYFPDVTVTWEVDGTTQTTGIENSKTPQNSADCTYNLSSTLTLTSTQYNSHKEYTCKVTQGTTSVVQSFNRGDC
Procedure: (§1) SuRe protein A (GE Healthcare) prepared at 25 μg/mL using Acetate4.5 (GE Healthcare) was immobilized on sensor chip CM4 at approximately 1000 RU per flow cell using an amine coupling kit (GE Healthcare).
(§2) The sensor chip was regenerated by passing Glycine1.5 and 25 mM NaOH, each at a flow rate of 30 μL/min for 15 seconds. The dissociation constant KD (M) was calculated based on the association rate constant ka (1/Ms) and the dissociation rate constant kd (1/s), which are kinetic parameters calculated from the sensorgram obtained by the measurement. Biacore T200 Evaluation Software (GE Healthcare) was used for calculation of each parameter.

Row | Binder | Kd [nM]
1 | B1 | 17
2 | B2 | 78

molecular target: T2, CD3ε epitope-fused CE115HA056 (CE115HAGP12-rabIgG/GLS3000-rabk); experiment: as above
T2 construct: rabbit constant regions; also called CE115HAPG12
T2 sequence (heavy, as listed by the source, chain 1 of 2): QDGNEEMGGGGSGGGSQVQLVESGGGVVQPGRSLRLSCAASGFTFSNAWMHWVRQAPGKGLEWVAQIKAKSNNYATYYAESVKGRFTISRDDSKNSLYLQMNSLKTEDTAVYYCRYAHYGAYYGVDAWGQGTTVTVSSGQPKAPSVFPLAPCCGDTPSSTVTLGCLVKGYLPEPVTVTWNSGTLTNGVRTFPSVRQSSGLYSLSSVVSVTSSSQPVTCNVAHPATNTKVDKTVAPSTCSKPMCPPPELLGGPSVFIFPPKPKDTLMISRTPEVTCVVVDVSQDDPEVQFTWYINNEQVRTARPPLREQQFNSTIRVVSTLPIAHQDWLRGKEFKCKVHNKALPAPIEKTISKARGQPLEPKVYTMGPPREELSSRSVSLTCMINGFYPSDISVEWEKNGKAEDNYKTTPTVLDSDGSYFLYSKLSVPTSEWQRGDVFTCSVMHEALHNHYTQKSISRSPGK
Procedure: as §1, §2

Row | Binder | Kd [nM]
3 | B1 | 14
4 | B2 | 74

molecular target: T3, adenosine-binding antibody SMB0002hH-G1m3/SMB0002hL-k0a; experiment: BLI (OctetHTX), target on streptavidin sensor, antibody 10 ug/mL, 30 C, with and without adenosine
T3 construct: also called biotinylated SMB0002hH-G1m3/SMB0002hL-k0
T3 sequence (VH, as listed by the source, chain 1 of 2): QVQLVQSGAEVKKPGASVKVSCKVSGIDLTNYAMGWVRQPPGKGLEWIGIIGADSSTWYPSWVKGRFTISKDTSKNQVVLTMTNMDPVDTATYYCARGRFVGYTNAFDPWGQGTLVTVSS
T3 sequence (V domain, as listed by the source, chain 2 of 2): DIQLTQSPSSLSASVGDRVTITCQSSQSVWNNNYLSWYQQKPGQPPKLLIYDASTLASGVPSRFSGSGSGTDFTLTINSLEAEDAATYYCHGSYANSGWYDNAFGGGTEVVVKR
Procedure: Evaluation of the binding of each prepared and purified antibody to a complex of adenosine with an adenosine-binding antibody was performed using OctetHTX (ForteBio). Specifically, biotinylated SMB0002Fab prepared by the method described in Example 9, which was prepared with TBS or adenosine/TBS or SMB0002hH-G1m3/SMB0002hL-k0a biotinylated with EZ-Link Sulfo-NHS-SS-Biotin was bound to Dip and Read™ Streptavidin (SA) Biosensors (ForteBio). Subsequently, each purified antibody prepared at 10 μg/mL using TBS or adenosine/TBS was allowed to act, and the binding at 30° C. was evaluated.

Row | Binder | binding result
5 | B3 | binds
6 | B4 | binds
7 | B5 | binds
8 | B6 | binds
9 | B7 | binds
10 | B8 | binds
11 | B9 | binds
12 | B10 | binds
13 | B11 | binds
14 | B12 | binds
15 | B13 | binds

molecular target: CD3 antibody CE115HA146 (CE115HA146-F760mnP17/GLS3000-k0); experiment: SPR (Biacore), 37 C; ligand antibody captured on SuRe protein A chip (1000 RU), Fab as analyte at 100 nM for 180 s; amount of binding per 1 RU of ligand
Sequence (heavy, as listed by the source, chain 1 of 2): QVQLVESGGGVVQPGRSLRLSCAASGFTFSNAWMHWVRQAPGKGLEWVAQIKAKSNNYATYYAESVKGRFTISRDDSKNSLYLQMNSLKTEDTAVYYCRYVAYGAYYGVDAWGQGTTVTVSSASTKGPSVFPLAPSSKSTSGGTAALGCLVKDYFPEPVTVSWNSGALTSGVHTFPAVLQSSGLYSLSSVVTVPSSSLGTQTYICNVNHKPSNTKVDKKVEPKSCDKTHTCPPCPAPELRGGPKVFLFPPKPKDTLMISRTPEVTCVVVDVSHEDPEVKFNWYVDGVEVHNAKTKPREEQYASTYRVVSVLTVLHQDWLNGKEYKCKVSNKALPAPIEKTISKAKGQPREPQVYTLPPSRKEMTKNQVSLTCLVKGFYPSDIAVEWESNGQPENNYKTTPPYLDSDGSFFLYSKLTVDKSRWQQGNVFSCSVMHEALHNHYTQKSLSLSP
Sequence (light, as listed by the source, chain 2 of 2): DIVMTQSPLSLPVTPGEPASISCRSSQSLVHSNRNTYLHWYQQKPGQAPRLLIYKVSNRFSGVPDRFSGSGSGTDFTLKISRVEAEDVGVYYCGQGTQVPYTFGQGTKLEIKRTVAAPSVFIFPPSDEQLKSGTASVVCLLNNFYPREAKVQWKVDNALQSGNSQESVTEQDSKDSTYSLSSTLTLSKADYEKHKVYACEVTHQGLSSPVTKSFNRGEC
Procedure: as §1
(§3) First, to evaluate the binding specificity of the clamping antibodies, a ligand was reacted at 37° C. for 60 seconds at a flow rate of 10 μL/min to capture 1000 RU, and an analyte prepared at 100 nM was allowed to act for 180 seconds at a flow rate of 30 μL/min, and the amount of binding was measured.

Row | Binder | binding result
16 | B1 | no binding (tested: 100 nM)
17 | B2 | no binding (tested: 100 nM)
18 | B14 | no binding (tested: 100 nM)

molecular target: T4, negative control IC17 (IC17Hdk-F760mnP17/IC17L-k0); experiment: as above
T4 construct: also called anti-KLH antibody
T4 sequence (VH, as listed by the source, chain 1 of 2): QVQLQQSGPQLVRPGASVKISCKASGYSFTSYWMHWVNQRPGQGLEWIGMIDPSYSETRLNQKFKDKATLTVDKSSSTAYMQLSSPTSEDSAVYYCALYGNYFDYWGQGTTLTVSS
T4 sequence (VL, as listed by the source, chain 2 of 2): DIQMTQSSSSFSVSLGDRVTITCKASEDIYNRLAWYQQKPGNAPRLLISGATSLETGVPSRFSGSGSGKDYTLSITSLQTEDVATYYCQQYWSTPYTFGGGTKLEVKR
Procedure: as §1, §3

Row | Binder | binding result
19 | B1 | no binding (tested: 100 nM)
20 | B2 | no binding (tested: 100 nM)
21 | B14 | no binding (tested: 100 nM)

molecular target: T5, CD3ε epitope-fused GPC3 antibody (hGC33VHGP01-rabCH1hG1m/hGC33VL-rabk); experiment: as above
T5 construct: control for recognition of the peptide alone
T5 sequence (VH, as listed by the source, chain 1 of 2): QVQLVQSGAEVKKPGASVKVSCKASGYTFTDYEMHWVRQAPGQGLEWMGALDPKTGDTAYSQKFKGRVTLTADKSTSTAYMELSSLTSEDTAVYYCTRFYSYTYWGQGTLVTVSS
T5 sequence (VL, as listed by the source, chain 2 of 2): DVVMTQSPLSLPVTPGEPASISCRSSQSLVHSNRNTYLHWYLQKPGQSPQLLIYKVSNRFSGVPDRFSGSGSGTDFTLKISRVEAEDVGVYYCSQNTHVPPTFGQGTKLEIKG
Procedure: as §1, §3

Row | Binder | binding result
22 | B1 | no binding (tested: 100 nM)
23 | B2 | no binding (tested: 100 nM)
24 | B14 | no binding (tested: 100 nM)

molecular target: CD3 antibody CE115HA000 (CE115HA000-F760mnP17/GLS3000-k0); experiment: as above
Sequence (VH, as listed by the source, chain 1 of 2): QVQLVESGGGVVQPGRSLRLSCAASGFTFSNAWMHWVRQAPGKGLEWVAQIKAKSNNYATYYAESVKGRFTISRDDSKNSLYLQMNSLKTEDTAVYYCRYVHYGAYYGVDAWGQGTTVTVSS
Sequence (VL, as listed by the source, chain 2 of 2): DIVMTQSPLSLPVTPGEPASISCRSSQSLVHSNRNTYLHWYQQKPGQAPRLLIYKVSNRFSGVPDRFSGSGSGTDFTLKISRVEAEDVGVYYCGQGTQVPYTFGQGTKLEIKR
Procedure: as §1, §3

Row | Binder | binding result
25 | B1 | no binding (tested: 100 nM)
26 | B2 | no binding (tested: 100 nM)
27 | B14 | no binding (tested: 100 nM)

molecular target: CD3 antibody CE115HA056 (CE115HA056-F760mnP17/GLS3000-k0); experiment: as above
Sequence (heavy, as listed by the source, chain 1 of 2): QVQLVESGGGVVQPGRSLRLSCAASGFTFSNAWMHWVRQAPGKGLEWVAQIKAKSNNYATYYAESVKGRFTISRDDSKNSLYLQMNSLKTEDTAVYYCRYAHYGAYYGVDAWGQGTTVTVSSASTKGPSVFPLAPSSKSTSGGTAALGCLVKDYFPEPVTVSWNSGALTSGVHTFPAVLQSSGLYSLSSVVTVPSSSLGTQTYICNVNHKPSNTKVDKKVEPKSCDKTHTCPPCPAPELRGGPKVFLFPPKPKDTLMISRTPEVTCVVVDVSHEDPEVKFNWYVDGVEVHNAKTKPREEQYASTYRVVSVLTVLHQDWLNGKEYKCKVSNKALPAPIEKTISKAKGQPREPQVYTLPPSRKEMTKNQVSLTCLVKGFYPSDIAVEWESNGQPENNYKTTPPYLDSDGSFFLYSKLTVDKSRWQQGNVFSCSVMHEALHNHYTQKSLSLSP
Procedure: as §1, §3

Row | Binder | binding result
28 | B1 | no binding (tested: 100 nM)
29 | B2 | no binding (tested: 100 nM)
30 | B14 | no binding (tested: 100 nM)

Source: patent publication US20240190960A1 (Chugai, published 2024)
